In patent publication US20170112760:

Biological target: T1, RALA peptide
T1 chain: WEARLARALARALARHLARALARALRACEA

B1: proteinase K (protein)
chain: AAQTNAPWGLARISSTSPGTSTYYYDESAGQGSCVYVIDTGIEASHPEFEGRAQMVKTYYYSSRDGNGHGTHCAGTVGSRTYGVAKKTQLFGVKVLDDNGSGQYSTIIAGMDFVASDKNNRNCPKGVVASLSLGGGYSSSVNSAAARLQSSGVMVAVAAGNNNADARNYSPASEPSVCTVGASDRYDRRSSFSNYGSVLDIFGPGTSILSTWIGGSTRSISGTSMATPHVAGLAAYLMTLGKTTAASACRYIADTANKGDLSNIPFGTVNLLAYNNYQA
release of DNA from RALA/pEGFP-N1 nanoparticles on agarose gel after 30 min with 20% proteinase K (0.1 mg/mL): the RALA peptide is cleaved by proteinase K thus releasing the DNA into solution
